The values below come from patent publication US20140087995A1 (published 2014).

Assay [1] concerns the target T1, human calcitonin receptor (human, UniProt P30988 25-474).
T1 construct: whole, on cells; Cell membranes of a stably transfected BHK cell line (Assay VII); also called hCTR; hCT
T1 sequence (looked up): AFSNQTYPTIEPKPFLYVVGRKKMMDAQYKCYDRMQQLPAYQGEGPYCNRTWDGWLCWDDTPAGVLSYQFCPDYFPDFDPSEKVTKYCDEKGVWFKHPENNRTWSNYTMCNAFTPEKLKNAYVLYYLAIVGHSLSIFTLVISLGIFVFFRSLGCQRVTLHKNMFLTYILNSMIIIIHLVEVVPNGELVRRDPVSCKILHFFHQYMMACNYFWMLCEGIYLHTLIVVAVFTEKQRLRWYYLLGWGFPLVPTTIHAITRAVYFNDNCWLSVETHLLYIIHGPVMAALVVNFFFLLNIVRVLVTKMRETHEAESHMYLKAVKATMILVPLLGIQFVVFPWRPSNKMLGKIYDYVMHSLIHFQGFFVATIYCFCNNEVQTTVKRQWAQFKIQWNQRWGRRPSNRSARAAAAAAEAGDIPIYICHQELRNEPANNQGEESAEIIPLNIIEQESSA
Kind of assay: ratio IC50 human calcitonin receptor / IC50 human amylin receptor. A digest of the protocol:
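Membranes (35 ng/μL final) + SPA beads, 50 mM Hepes pH 7.4 buffer with 1 mM CaCl2, 5 mM MgCl₂, 0.1% OA, 0.02% Tween20; 120 min, 25° C, shaking; centrifuged, counted; IC₅₀ by one-site binding competition.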

Assay [2] addresses T2, rat amylin receptor (rat calcitonin receptor + rat RAMP 3) (rat, UniProt P32214 25-516; Q9JJ73 23-147).
T2 construct: whole, on cells; Cell membranes of transiently transfected BHK tk'ts 13 cells (Assay VI); also called rAmylin-R; rat amylin 3(a) receptor
T2 sequence (looked up) 1: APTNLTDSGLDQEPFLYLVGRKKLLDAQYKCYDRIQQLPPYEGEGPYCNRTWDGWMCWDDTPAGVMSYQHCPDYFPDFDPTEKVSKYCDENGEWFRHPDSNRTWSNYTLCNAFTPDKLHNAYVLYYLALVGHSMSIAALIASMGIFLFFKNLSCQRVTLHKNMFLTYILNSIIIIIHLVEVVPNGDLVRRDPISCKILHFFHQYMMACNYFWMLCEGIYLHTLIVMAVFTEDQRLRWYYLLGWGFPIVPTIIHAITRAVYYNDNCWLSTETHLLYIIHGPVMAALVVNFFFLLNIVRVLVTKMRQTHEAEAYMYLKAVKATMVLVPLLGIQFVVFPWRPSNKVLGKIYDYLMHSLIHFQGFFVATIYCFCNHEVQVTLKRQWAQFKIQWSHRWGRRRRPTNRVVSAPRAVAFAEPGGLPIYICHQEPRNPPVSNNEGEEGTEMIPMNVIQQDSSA
T2 sequence (looked up) 2: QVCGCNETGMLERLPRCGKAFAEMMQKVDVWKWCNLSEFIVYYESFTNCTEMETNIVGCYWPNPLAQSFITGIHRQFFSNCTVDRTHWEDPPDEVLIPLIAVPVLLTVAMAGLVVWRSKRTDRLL
In words: SPA competition vs 125I-rat amylin, membranes with rat CTR + rat RAMP3 (Assay VI).

Assay [3] has as its target T3, rat calcitonin receptor (rat, UniProt P32214 25-516).
T3 construct: whole, on cells; Cell membranes of transiently transfected BHK tk'ts 13 cells (Assay VIII); also called rCTR; rCT
T3 sequence (looked up): T2 sequence (looked up) 1
In words: ratio IC50 rat calcitonin receptor / IC50 rat amylin receptor.

The target of assay [4] is T3, rat calcitonin receptor. In words: SPA competition vs 125I-calcitonin, membranes with rat CTR (Assay VIII).

Numbered stars: 1 amine (or outer) side, 2 acyl side, 3 side chain; on linkers, the order of the positions; unused ones are H or OH. Bridge positions count the residues as written; N and C are the ends. Side chains are listed from the residue outwards. Ends that are not written are not given here. * marks the point of attachment. C20 diacid = O=C(O)CCCCCCCCCCCCCCCCCCC(=O)*; γGlu = O=C(O)[C@H](CCC(=O)[*:2])N[*:1]; AEEA = NCCOCCOCC(=O)O

B1: N^-1-[(4S)-4-carboxy-4-(19-carboxynonadecanoylamino)butanoyl]-Gly[Arg1,Arg17,Pro21,Pro27]-h-amylin (peptide)
peptide: {C20 diacid-γGlu}-GRCNTATCATQRLANFLRHSSPNFGAIPSSTNVGSNTY-NH2
modifications: disulfide 3-8
SMILES: CC[C@H](C)[C@H](NC(=O)[C@H](C)NC(=O)CNC(=O)[C@H](Cc1ccccc1)NC(=O)[C@H](CC(N)=O)NC(=O)[C@@H]1CCCN1C(=O)[C@H](CO)NC(=O)[C@H](CO)NC(=O)[C@H](Cc1c[nH]cn1)NC(=O)[C@H](CCCNC(=N)N)NC(=O)[C@H](CC(C)C)NC(=O)[C@H](Cc1ccccc1)NC(=O)[C@H](CC(N)=O)NC(=O)[C@H](C)NC(=O)[C@H](CC(C)C)NC(=O)[C@H](CCCNC(=N)N)NC(=O)[C@H](CCC(N)=O)NC(=O)[C@@H](NC(=O)[C@H](C)NC(=O)[C@@H]1CSSC[C@H](NC(=O)[C@H](CCCNC(=N)N)NC(=O)CNC(=O)CC[C@H](NC(=O)CCCCCCCCCCCCCCCCCCC(=O)O)C(=O)O)C(=O)N[C@@H](CC(N)=O)C(=O)N[C@@H]([C@@H](C)O)C(=O)N[C@@H](C)C(=O)N[C@@H]([C@@H](C)O)C(=O)N1)[C@@H](C)O)C(=O)N1CCC[C@H]1C(=O)N[C@@H](CO)C(=O)N[C@@H](CO)C(=O)N[C@H](C(=O)N[C@@H](CC(N)=O)C(=O)N[C@H](C(=O)NCC(=O)N[C@@H](CO)C(=O)N[C@@H](CC(N)=O)C(=O)N[C@H](C(=O)N[C@@H](Cc1ccc(O)cc1)C(N)=O)[C@@H](C)O)C(C)C)[C@@H](C)O
notes: Acylated analogue of human amylin, extended by one residue at the N-terminus; also called compound 46
Turning to B1, the “Ratio hCT/hAmylin binding” value in assay [1] is 48.9. Also, the values for the IC50 (in assay [2]; in the assay with rat calcitonin receptor [4]) were 0.33 nM and 46.8 nM, respectively. For the same molecule, in the assay with rat calcitonin receptor [3], the “Ratio rCT/rAmylin binding” value stood at 142.

B2: N^ε-[2-[2-[2-[[(4S)-4-carboxy-4-(19-carboxynonadecanoylamino)butanoyl]amino]ethoxy]ethoxy]acetyl]Lys[Arg1,Arg17,Pro21,Pro27,His35]-h-amylin (peptide)
peptide: K([AEEA-γGlu-C20 diacid])RCNTATCATQRLANFLRHSSPNFGAIPSSTNVGSHTY-NH2
modifications: disulfide 3-8; N-terminus assumed
SMILES: CC[C@H](C)[C@H](NC(=O)[C@H](C)NC(=O)CNC(=O)[C@H](Cc1ccccc1)NC(=O)[C@H](CC(N)=O)NC(=O)[C@@H]1CCCN1C(=O)[C@H](CO)NC(=O)[C@H](CO)NC(=O)[C@H](Cc1c[nH]cn1)NC(=O)[C@H](CCCNC(=N)N)NC(=O)[C@H](CC(C)C)NC(=O)[C@H](Cc1ccccc1)NC(=O)[C@H](CC(N)=O)NC(=O)[C@H](C)NC(=O)[C@H](CC(C)C)NC(=O)[C@H](CCCNC(=N)N)NC(=O)[C@H](CCC(N)=O)NC(=O)[C@@H](NC(=O)[C@H](C)NC(=O)[C@@H]1CSSC[C@H](NC(=O)[C@H](CCCNC(=N)N)NC(=O)[C@@H](N)CCCCNC(=O)COCCOCCNC(=O)CC[C@H](NC(=O)CCCCCCCCCCCCCCCCCCC(=O)O)C(=O)O)C(=O)N[C@@H](CC(N)=O)C(=O)N[C@@H]([C@@H](C)O)C(=O)N[C@@H](C)C(=O)N[C@@H]([C@@H](C)O)C(=O)N1)[C@@H](C)O)C(=O)N1CCC[C@H]1C(=O)N[C@@H](CO)C(=O)N[C@@H](CO)C(=O)N[C@H](C(=O)N[C@@H](CC(N)=O)C(=O)N[C@H](C(=O)NCC(=O)N[C@@H](CO)C(=O)N[C@@H](Cc1c[nH]cn1)C(=O)N[C@H](C(=O)N[C@@H](Cc1ccc(O)cc1)C(N)=O)[C@@H](C)O)C(C)C)[C@@H](C)O
notes: Acylated analogue of human amylin, extended by one residue at the N-terminus; also called compound 45
For B2, the “Ratio hCT/hAmylin binding” value in assay [1] was determined as 26.8. Besides, the IC50 in assay [2] was determined as 0.623 nM; with rat calcitonin receptor [4], 41.8 nM. For the same molecule, in the assay with rat calcitonin receptor [3], the “Ratio rCT/rAmylin binding” value was 67.1.

What is called IC50 is the concentration at which inhibition is half-maximal.
